Assay results as given in paper PMC2673426.

Experiments:
hSBP2 (Homo sapiens) = biological target: T1, hSBP2 (Homo sapiens) (UniProt Q96T21); test: EMSA
T1 sequence: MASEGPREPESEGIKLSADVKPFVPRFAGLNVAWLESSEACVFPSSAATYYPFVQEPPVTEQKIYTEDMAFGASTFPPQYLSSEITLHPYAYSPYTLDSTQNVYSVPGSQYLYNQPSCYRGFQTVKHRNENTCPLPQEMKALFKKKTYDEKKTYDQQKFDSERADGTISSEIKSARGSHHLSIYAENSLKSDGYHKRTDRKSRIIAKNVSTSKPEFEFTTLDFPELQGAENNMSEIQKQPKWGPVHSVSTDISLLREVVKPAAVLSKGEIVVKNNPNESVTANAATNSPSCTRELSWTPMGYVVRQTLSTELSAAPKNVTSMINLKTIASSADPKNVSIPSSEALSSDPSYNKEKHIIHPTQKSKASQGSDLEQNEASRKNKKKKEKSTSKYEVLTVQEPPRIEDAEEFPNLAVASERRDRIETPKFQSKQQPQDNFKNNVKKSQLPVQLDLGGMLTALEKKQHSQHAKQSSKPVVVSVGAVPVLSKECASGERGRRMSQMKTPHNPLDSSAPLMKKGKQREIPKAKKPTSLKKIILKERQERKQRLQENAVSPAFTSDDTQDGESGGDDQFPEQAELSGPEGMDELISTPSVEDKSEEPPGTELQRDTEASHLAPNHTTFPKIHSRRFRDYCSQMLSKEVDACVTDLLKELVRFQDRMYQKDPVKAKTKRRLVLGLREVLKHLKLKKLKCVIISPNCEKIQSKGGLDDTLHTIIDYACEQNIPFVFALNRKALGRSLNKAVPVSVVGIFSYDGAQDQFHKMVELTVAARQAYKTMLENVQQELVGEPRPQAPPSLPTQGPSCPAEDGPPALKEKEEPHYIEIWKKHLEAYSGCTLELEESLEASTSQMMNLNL

[1] = biological target: T2, dSBP2 (Drosophila melanogaster) (UniProt Q9VSH1); test: EMSA
T2 sequence: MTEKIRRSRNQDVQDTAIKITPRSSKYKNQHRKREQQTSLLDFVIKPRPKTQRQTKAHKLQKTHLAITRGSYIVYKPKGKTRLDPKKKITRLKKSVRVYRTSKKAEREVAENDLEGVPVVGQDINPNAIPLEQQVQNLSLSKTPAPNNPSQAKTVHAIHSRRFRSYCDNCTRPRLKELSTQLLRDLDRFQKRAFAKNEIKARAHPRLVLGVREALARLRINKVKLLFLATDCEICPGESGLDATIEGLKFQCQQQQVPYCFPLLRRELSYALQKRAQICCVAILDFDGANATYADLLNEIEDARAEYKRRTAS

Substance | Kd (hSBP2 (Homo sapiens)) [nM] | Kd [1] [nM]
GPx1 SECIS (form 1) | 400 | –
dSelH SECIS (form 2) | – | 170
dSelK SECIS (form 2) | – | 260
